In test [1] the target is 食蟹猴TIGIT (Cyno-TIGIT) on 293T-Cyno-TIGIT cells (cynomolgus monkey (Macaca fascicularis)). The test is described as follows: flow cytometry on 293T-Cyno-TIGIT cells, secondary antibody alone (background control). In general terms: A flow cytometer gives signals particle by particle.
Test [2] addresses T1, 人TIGIT (hTIGIT) on 293T-hTIGIT cells (human) (UniProt Q495A1).
T1 sequence: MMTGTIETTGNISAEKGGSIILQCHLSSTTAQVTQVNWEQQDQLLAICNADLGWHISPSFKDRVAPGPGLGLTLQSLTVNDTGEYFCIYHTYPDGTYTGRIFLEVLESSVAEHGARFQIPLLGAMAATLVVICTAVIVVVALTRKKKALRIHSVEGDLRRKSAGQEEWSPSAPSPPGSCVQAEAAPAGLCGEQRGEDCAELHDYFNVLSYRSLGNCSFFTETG
Nature of the test: flow cytometry on 293T-hTIGIT cells, secondary antibody alone (background control).

The target in test [3] is T2, TIGIT-hFc蛋白(人TIGIT胞外区与人IgG1 Fc的融合蛋白) (human) (UniProt Q495A1).
T2 sequence: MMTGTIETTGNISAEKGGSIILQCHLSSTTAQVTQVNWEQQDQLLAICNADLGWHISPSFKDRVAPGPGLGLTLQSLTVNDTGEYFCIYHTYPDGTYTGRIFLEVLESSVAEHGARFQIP
Nature of the test: flow cytometry, blocking of TIGIT-hFc binding to 293T-hPVR cells, hybridoma supernatant.

In test [4] the target is 食蟹猴TIGIT (Cyno-TIGIT) on 293T-Cyno-TIGIT cells (cynomolgus monkey (Macaca fascicularis)). Nature of the test: flow cytometry on 293T-Cyno-TIGIT cells, 50 uL hybridoma supernatant, APC anti-mouse IgG Fc.
In test [5] the target is T2, TIGIT-hFc蛋白(人TIGIT胞外区与人IgG1 Fc的融合蛋白) (human). Nature of the test: flow cytometry, signal on 293T-hPVR cells with 500 ng TIGIT-hFc and 50 uL hybridoma supernatant.
Test [6] has as its target T1, 人TIGIT (hTIGIT) on 293T-hTIGIT cells (human). Nature of the test: flow cytometry on 293T-hTIGIT cells, 1.0 ug antibody, APC anti-human IgG Fc.
Test [7] shares this target. The test is described as follows: flow cytometry on 293T-hTIGIT cells, 1.7 ug antibody, APC anti-human IgG Fc.
Test [8] shares this target. Nature of the test: flow cytometry on 293T-hTIGIT cells, 0.5 ug antibody, APC anti-human IgG Fc.

Sequence of 食蟹猴TIGIT (Cyno-TIGIT) on 293T-Cyno-TIGIT cells (cynomolgus monkey (Macaca fascicularis)) (chain, as listed by the source limits assumed): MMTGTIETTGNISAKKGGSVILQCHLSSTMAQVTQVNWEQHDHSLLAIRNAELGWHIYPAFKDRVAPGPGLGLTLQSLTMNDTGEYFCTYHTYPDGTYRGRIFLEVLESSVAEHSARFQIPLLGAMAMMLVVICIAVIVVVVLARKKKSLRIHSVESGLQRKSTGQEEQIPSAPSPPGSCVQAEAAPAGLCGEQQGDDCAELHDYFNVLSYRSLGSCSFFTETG

On to “APC羊抗小鼠IgG Fc二抗(Biolegend, Cat405308) (antibody)”, for which, in test [1], the Geom.Mean came to 1920.
“APC抗人IgG Fc二抗(Biolegend, Cat409306) (antibody)” registered a Geom.Mean in test [2] of 405.

B1: 鼠源抗TIGIT抗体(杂交瘤18A12分泌的抗体) (antibody, V domains shown)
VH: QVQLLESGGGLVQPGGSMKLSCVVSGFTFSNYWMNWVRQSPEKGLEWVAEIRLKSNNYATHYAESVKGRFAISRDDSKSSVYLQMNNLRAEDTGVYYCTRLYYGNYFDYWGQGTTLTVSS
VL: DIQMTQSPASLSASVGETVTITCRASENTYSYLAWYQQKQGKSPQLLVYNAKTLAEGVPSRFSGSGSGTQFSLKITSLQPEDFGSYYCQHHYAFSYTFGGGTKLEMK
B1 had a 阻断率% in test [3] of 80.9%. For the same molecule, the Geom.Mean in test [4] was 20000; in test [5], 2760.

B2: 抗TIGIT嵌合抗体(IgG1亚型) (antibody, V domains shown)
VH: QVQLLESGGGLVQPGGSMKLSCVVSGFTFSNYWMNWVRQSPEKGLEWVAEIRLKSNNYATHYAESVKGRFAISRDDSKSSVYLQMNNLRAEDTGVYYCTRLYYGNYFDYWGQGTTLTVSS
VL: DIQMTQSPASLSASVGETVTITCRASENTYSYLAWYQQKQGKSPQLLVYNAKTLAEGVPSRFSGSGSGTQFSLKITSLQPEDFGSYYCQHHYAFSYTFGGGTKLEMKR
On to B2, for which the Geom.Mean in test [6] turned out to be 10300; in test [7], 12200; in test [8] it was 8790.

Values taken from CN114790241A.
